T1: FcγRIIa R (human, UniProt P12318 34-217)
T1 construct: extracellular domain; also called FcgRIIa R; FcγRIIa type R
T1 sequence (looked up): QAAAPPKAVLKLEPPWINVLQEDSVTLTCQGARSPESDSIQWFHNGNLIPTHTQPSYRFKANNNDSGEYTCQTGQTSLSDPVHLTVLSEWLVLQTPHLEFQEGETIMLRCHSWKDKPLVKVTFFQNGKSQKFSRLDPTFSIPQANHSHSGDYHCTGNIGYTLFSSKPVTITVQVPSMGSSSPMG

T2: FcγRIIb (human, UniProt P31994 43-217)
T2 construct: extracellular domain; also called FcgRIIb
T2 sequence (looked up): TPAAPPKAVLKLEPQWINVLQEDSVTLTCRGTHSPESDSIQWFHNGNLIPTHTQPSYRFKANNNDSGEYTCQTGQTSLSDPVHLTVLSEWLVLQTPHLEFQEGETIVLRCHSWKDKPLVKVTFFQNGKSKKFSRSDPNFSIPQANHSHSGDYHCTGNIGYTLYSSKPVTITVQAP


How the values were obtained:
FcγRIIa R [1] = target: T1, FcγRIIa R; experiment: He/Con_2aR divided by He/Con_2b (FcγRIIa R over FcγRIIb); SPR (Biacore)
FcγRIIa R [2] = target: T1, FcγRIIa R; experiment: SPR (Biacore), captured antibody, FcγR analyte; binding relative to GpH7-A5/GpH7-B3/GpL16-k0 = 100
FcγRIIb = target: T2, FcγRIIb; experiment: as above

Binder | IIaR/IIb (He_2aR/2b) (FcγRIIa R [1]) [ratio] | He/Con_2aR (IIaR binding) (FcγRIIa R [2]) [control=100] | He/Con_2b (IIb binding) (FcγRIIb) [control=100]
GpH7-A5/GpH7-B3 variant P329_16H/GpL16-k0 (antibody, human IgG1, kappa, He Ab; IgG1; mutation in one H chain only) heavy 1: not shown heavy 2: not shown light: DIVMTQSPLSLPVTPGEPASISCQASESLVHSNRNTYLHWYLQKPGQSPQLLIYKVSNRFSGVPDRFSGSGSGTDFTLKISRVEAEDVGVYYCSQNTHVPPTFGQGTKVEIERTVAAPSVFIFPPSDEQLKSGTASVVCLLNNFYPREAKVQWKVDNALQSGNSQESVTEQDSKDSTYSLSSTLTLSKADYEKHKVYACEVTHQGLSSPVTKSFNRGEC | 1.45 | 56.7 | 39.1
GpH7-A5/GpH7-B3 variant S298_15Y/GpL16-k0 (antibody, human IgG1, kappa, He Ab; IgG1; mutation in one H chain only) heavy 1: not shown heavy 2: not shown light: DIVMTQSPLSLPVTPGEPASISCQASESLVHSNRNTYLHWYLQKPGQSPQLLIYKVSNRFSGVPDRFSGSGSGTDFTLKISRVEAEDVGVYYCSQNTHVPPTFGQGTKVEIERTVAAPSVFIFPPSDEQLKSGTASVVCLLNNFYPREAKVQWKVDNALQSGNSQESVTEQDSKDSTYSLSSTLTLSKADYEKHKVYACEVTHQGLSSPVTKSFNRGEC | 1.29 | 79.1 | 61.4
GpH7-A5/GpH7-B3 variant S298_10E/GpL16-k0 (antibody, human IgG1, kappa, He Ab; IgG1; mutation in one H chain only) heavy 1: not shown heavy 2: not shown light: DIVMTQSPLSLPVTPGEPASISCQASESLVHSNRNTYLHWYLQKPGQSPQLLIYKVSNRFSGVPDRFSGSGSGTDFTLKISRVEAEDVGVYYCSQNTHVPPTFGQGTKVEIERTVAAPSVFIFPPSDEQLKSGTASVVCLLNNFYPREAKVQWKVDNALQSGNSQESVTEQDSKDSTYSLSSTLTLSKADYEKHKVYACEVTHQGLSSPVTKSFNRGEC | 1.37 | 65.1 | 47.6
GpH7-A5/GpH7-B3 variant S298_12R/GpL16-k0 (antibody, human IgG1, kappa, He Ab; IgG1; mutation in one H chain only) heavy 1: not shown heavy 2: not shown light: DIVMTQSPLSLPVTPGEPASISCQASESLVHSNRNTYLHWYLQKPGQSPQLLIYKVSNRFSGVPDRFSGSGSGTDFTLKISRVEAEDVGVYYCSQNTHVPPTFGQGTKVEIERTVAAPSVFIFPPSDEQLKSGTASVVCLLNNFYPREAKVQWKVDNALQSGNSQESVTEQDSKDSTYSLSSTLTLSKADYEKHKVYACEVTHQGLSSPVTKSFNRGEC | 1.48 | 85.3 | 57.8
GpH7-A5/GpH7-B3 variant S298_20W/GpL16-k0 (antibody, human IgG1, kappa, He Ab; IgG1; mutation in one H chain only) heavy 1: not shown heavy 2: not shown light: DIVMTQSPLSLPVTPGEPASISCQASESLVHSNRNTYLHWYLQKPGQSPQLLIYKVSNRFSGVPDRFSGSGSGTDFTLKISRVEAEDVGVYYCSQNTHVPPTFGQGTKVEIERTVAAPSVFIFPPSDEQLKSGTASVVCLLNNFYPREAKVQWKVDNALQSGNSQESVTEQDSKDSTYSLSSTLTLSKADYEKHKVYACEVTHQGLSSPVTKSFNRGEC | 1.35 | 55.4 | 41.1
GpH7-A5/GpH7-B3 variant P331_01G/GpL16-k0 (antibody, human IgG1, kappa, He Ab; IgG1; mutation in one H chain only) heavy 1: not shown heavy 2: not shown light: DIVMTQSPLSLPVTPGEPASISCQASESLVHSNRNTYLHWYLQKPGQSPQLLIYKVSNRFSGVPDRFSGSGSGTDFTLKISRVEAEDVGVYYCSQNTHVPPTFGQGTKVEIERTVAAPSVFIFPPSDEQLKSGTASVVCLLNNFYPREAKVQWKVDNALQSGNSQESVTEQDSKDSTYSLSSTLTLSKADYEKHKVYACEVTHQGLSSPVTKSFNRGEC | 1.34 | 61 | 45.4
GpH7-A5/GpH7-B3 variant Y300_05P/GpL16-k0 (antibody, human IgG1, kappa, He Ab; IgG1; mutation in one H chain only) heavy 1: not shown heavy 2: not shown light: DIVMTQSPLSLPVTPGEPASISCQASESLVHSNRNTYLHWYLQKPGQSPQLLIYKVSNRFSGVPDRFSGSGSGTDFTLKISRVEAEDVGVYYCSQNTHVPPTFGQGTKVEIERTVAAPSVFIFPPSDEQLKSGTASVVCLLNNFYPREAKVQWKVDNALQSGNSQESVTEQDSKDSTYSLSSTLTLSKADYEKHKVYACEVTHQGLSSPVTKSFNRGEC | 1.47 | 10.8 | 7.3
GpH7-A5/GpH7-B3 variant S298_18N/GpL16-k0 (antibody, human IgG1, kappa, He Ab; IgG1; mutation in one H chain only) heavy 1: not shown heavy 2: not shown light: DIVMTQSPLSLPVTPGEPASISCQASESLVHSNRNTYLHWYLQKPGQSPQLLIYKVSNRFSGVPDRFSGSGSGTDFTLKISRVEAEDVGVYYCSQNTHVPPTFGQGTKVEIERTVAAPSVFIFPPSDEQLKSGTASVVCLLNNFYPREAKVQWKVDNALQSGNSQESVTEQDSKDSTYSLSSTLTLSKADYEKHKVYACEVTHQGLSSPVTKSFNRGEC | 1.41 | 68 | 48.1
GpH7-A5/GpH7-B3 variant S298_11K/GpL16-k0 (antibody, human IgG1, kappa, He Ab; IgG1; mutation in one H chain only) heavy 1: not shown heavy 2: not shown light: DIVMTQSPLSLPVTPGEPASISCQASESLVHSNRNTYLHWYLQKPGQSPQLLIYKVSNRFSGVPDRFSGSGSGTDFTLKISRVEAEDVGVYYCSQNTHVPPTFGQGTKVEIERTVAAPSVFIFPPSDEQLKSGTASVVCLLNNFYPREAKVQWKVDNALQSGNSQESVTEQDSKDSTYSLSSTLTLSKADYEKHKVYACEVTHQGLSSPVTKSFNRGEC | 1.55 | 95.1 | 61.3
GpH7-A5/GpH7-B3 variant S298_19Q/GpL16-k0 (antibody, human IgG1, kappa, He Ab; IgG1; mutation in one H chain only) heavy 1: not shown heavy 2: not shown light: DIVMTQSPLSLPVTPGEPASISCQASESLVHSNRNTYLHWYLQKPGQSPQLLIYKVSNRFSGVPDRFSGSGSGTDFTLKISRVEAEDVGVYYCSQNTHVPPTFGQGTKVEIERTVAAPSVFIFPPSDEQLKSGTASVVCLLNNFYPREAKVQWKVDNALQSGNSQESVTEQDSKDSTYSLSSTLTLSKADYEKHKVYACEVTHQGLSSPVTKSFNRGEC | 1.3 | 95 | 73.3
GpH7-A5/GpH7-B3 variant Y300_12R/GpL16-k0 (antibody, human IgG1, kappa, He Ab; IgG1; mutation in one H chain only) heavy 1: not shown heavy 2: not shown light: DIVMTQSPLSLPVTPGEPASISCQASESLVHSNRNTYLHWYLQKPGQSPQLLIYKVSNRFSGVPDRFSGSGSGTDFTLKISRVEAEDVGVYYCSQNTHVPPTFGQGTKVEIERTVAAPSVFIFPPSDEQLKSGTASVVCLLNNFYPREAKVQWKVDNALQSGNSQESVTEQDSKDSTYSLSSTLTLSKADYEKHKVYACEVTHQGLSSPVTKSFNRGEC | 1.34 | 55.1 | 41.2
GpH7-A5/GpH7-B3 variant P329_18N/GpL16-k0 (antibody, human IgG1, kappa, He Ab; IgG1; mutation in one H chain only) heavy 1: not shown heavy 2: not shown light: DIVMTQSPLSLPVTPGEPASISCQASESLVHSNRNTYLHWYLQKPGQSPQLLIYKVSNRFSGVPDRFSGSGSGTDFTLKISRVEAEDVGVYYCSQNTHVPPTFGQGTKVEIERTVAAPSVFIFPPSDEQLKSGTASVVCLLNNFYPREAKVQWKVDNALQSGNSQESVTEQDSKDSTYSLSSTLTLSKADYEKHKVYACEVTHQGLSSPVTKSFNRGEC | 1.51 | 61.2 | 40.4
GpH7-A5/GpH7-B3 variant S298_16H/GpL16-k0 (antibody, human IgG1, kappa, He Ab; IgG1; mutation in one H chain only) heavy 1: not shown heavy 2: not shown light: DIVMTQSPLSLPVTPGEPASISCQASESLVHSNRNTYLHWYLQKPGQSPQLLIYKVSNRFSGVPDRFSGSGSGTDFTLKISRVEAEDVGVYYCSQNTHVPPTFGQGTKVEIERTVAAPSVFIFPPSDEQLKSGTASVVCLLNNFYPREAKVQWKVDNALQSGNSQESVTEQDSKDSTYSLSSTLTLSKADYEKHKVYACEVTHQGLSSPVTKSFNRGEC | 1.39 | 88.5 | 63.5
GpH7-A5/GpH7-B3 variant P329_19Q/GpL16-k0 (antibody, human IgG1, kappa, He Ab; IgG1; mutation in one H chain only) heavy 1: not shown heavy 2: not shown light: DIVMTQSPLSLPVTPGEPASISCQASESLVHSNRNTYLHWYLQKPGQSPQLLIYKVSNRFSGVPDRFSGSGSGTDFTLKISRVEAEDVGVYYCSQNTHVPPTFGQGTKVEIERTVAAPSVFIFPPSDEQLKSGTASVVCLLNNFYPREAKVQWKVDNALQSGNSQESVTEQDSKDSTYSLSSTLTLSKADYEKHKVYACEVTHQGLSSPVTKSFNRGEC | 1.34 | 41.1 | 30.7
GpH7-A5/GpH7-B3 variant Y300_18N/GpL16-k0 (antibody, human IgG1, kappa, He Ab; IgG1; mutation in one H chain only) heavy 1: not shown heavy 2: not shown light: DIVMTQSPLSLPVTPGEPASISCQASESLVHSNRNTYLHWYLQKPGQSPQLLIYKVSNRFSGVPDRFSGSGSGTDFTLKISRVEAEDVGVYYCSQNTHVPPTFGQGTKVEIERTVAAPSVFIFPPSDEQLKSGTASVVCLLNNFYPREAKVQWKVDNALQSGNSQESVTEQDSKDSTYSLSSTLTLSKADYEKHKVYACEVTHQGLSSPVTKSFNRGEC | 1.21 | 100 | 82.7
GpH7-A5/GpH7-B3 variant S298_14T/GpL16-k0 (antibody, human IgG1, kappa, He Ab; IgG1; mutation in one H chain only) heavy 1: not shown heavy 2: not shown light: DIVMTQSPLSLPVTPGEPASISCQASESLVHSNRNTYLHWYLQKPGQSPQLLIYKVSNRFSGVPDRFSGSGSGTDFTLKISRVEAEDVGVYYCSQNTHVPPTFGQGTKVEIERTVAAPSVFIFPPSDEQLKSGTASVVCLLNNFYPREAKVQWKVDNALQSGNSQESVTEQDSKDSTYSLSSTLTLSKADYEKHKVYACEVTHQGLSSPVTKSFNRGEC | 1.26 | 98.5 | 77.9
